In article PMC2855332:

Molecular target: ovine PrP (VRQ allele), PrP^Sc aggregates from brains of prion-infected tg338 mice (sheep) (UniProt P23907)

With “ovine PrP (VRQ allele), PrP^Sc aggregates from brains of prion-infected tg338 mice (from UniProt P23907 25-233) (natural protein)” the stoichiometry N was 12 to 30 PrP monomers.
